Measurements published in the Immune Epitope Database (IEDB).

What follows are sequences tested against HLA-A*02:01 (assay: IEDB peptide-MHC binding, purified MHC/competitive/radioactivity; ≥ and ≤ were set here for values at or beyond the usual limits of such assays). Conditions: source organism: Homo sapiens.

Sequence | IC50 [nM]
ALLAGLVSL | 76.3
AVIGALLAV | 17.9
FLCWGPFFL | 38.5
FLLRWEQEI | 25.6
FLPWHRLFL | 112
FLPWHRLFLL | 205
FLRNQPLTFA | 139
HLAVIGALL | 106
LLAGLVSLL | 95.2
NMVPFFPPV | 3.9
RIWSWLLGA | 100
RLLGSLNST | 167
RLMKQDFSV | 46.3
SLDDYNHLV | 26.3
SLHNLVHSFL | 263
SVMDPLIYA | 83.3
VLTALLAGL | 82
VMGTLVALV | 27.8
VVMGTLVAL | 66.7
WLLGAAMVGA | 32.1
YAIDLPVSV | 15.6
YVITTQHWL | 104
